Test results published in publication PMC9352680, “A comprehensive thermodynamic model for RNA binding by the Saccharomyces cerevisiae Pumilio protein PUF4”.

T1: PUF4 RNA-binding domain (Saccharomyces cerevisiae, UniProt P25339 537-888)
T1 sequence: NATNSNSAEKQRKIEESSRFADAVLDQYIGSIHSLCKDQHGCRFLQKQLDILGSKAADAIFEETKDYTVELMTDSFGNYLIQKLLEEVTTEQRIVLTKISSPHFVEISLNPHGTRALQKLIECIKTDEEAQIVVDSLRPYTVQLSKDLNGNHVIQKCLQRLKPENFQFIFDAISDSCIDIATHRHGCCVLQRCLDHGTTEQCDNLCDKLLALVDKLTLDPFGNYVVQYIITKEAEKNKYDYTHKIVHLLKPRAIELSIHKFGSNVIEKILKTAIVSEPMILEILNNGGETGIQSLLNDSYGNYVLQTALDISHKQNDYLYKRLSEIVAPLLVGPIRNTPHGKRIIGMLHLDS


What follows are binders tested against T1, PUF4 RNA-binding domain (assay: Mg; RNA-MaP; 20 mM Na-HEPES pH 7.4, 30 mM KOAc, 0.75 mM MgCl2, 0.1% Tween-20, 5% glycerol, 0.1 mg/mL BSA, 2 mM DTT; 25 C; 0.0125-409.6 nM protein). Details: tags: N-His6-TEV cleaved; C-SNAP kept, Cy3B-labelled; label: tethered on chip by stalled RNA polymerase.

UCUCUUUAUAUAUUAUUACGUCUCUU (ssRNA) [Id_ii_S1_P5E.3_K5.2_C5.2_[C-2T]_[T-1A]_H5.2_A5.1_F5.1_T5.2_[T11C]_[A12G]] was tested. Which Kd did it give?
Its Kd is 18.1 nM.

With UCUCUUUGUAUAUUAUUAAAUCUCUU (ssRNA) [Id_ii_S1_P5E.3_K5.2_C5.2_[C-2T]_[T-1G]_H5.2_A5.1_F5.1_T5.2_[T11A]] as the binder, how does the Kd read?
The Kd was 0.467 nM.

How did the Kd turn out when UCUCUUUCUAUAUUAUUAAAUCUCUU (ssRNA) [Id_ii_S1_P5E.3_K5.2_C5.2_[C-2T]_[T-1C]_H5.2_A5.1_F5.1_T5.2_[T11A]] was run?
Its Kd is 557 nM.

Which Kd does the source give for UCUCUUGCUAUAUUAUUAACUCUCUU (ssRNA) [Id_ii_S1_P5E.3_K5.2_C5.2_[C-2G]_[T-1C]_H5.2_A5.1_F5.1_T5.2_[T11A]_[A12C]] here?
The Kd was 346 nM.

How did the Kd turn out when UCUCUUCCUGUAUUAUUAAGUCUCUU (ssRNA) [Id_ii_S1_P5E.2_K5.1_C5.2_[T-1C]_H5.1_A5.1_F5.1_T5.2_[T11A]_[A12G]] was run?
Its Kd is 14.6 nM.

UCUCUUUGUAUAUUAUUAACUCUCUU (ssRNA) [Id_ii_S1_P5E.3_K5.2_C5.2_[C-2T]_[T-1G]_H5.2_A5.1_F5.1_T5.2_[T11A]_[A12C]] was tested. Which Kd did it give?
Its Kd is 0.55 nM.

UCUCUUUGUAUCAUAUCUCUU (ssRNA) [Ic_S1_P4E.1_K4.1_C4.1_H4.1_A4.1_[A6C]_[T7A]_F4.1_T4.1] was tested. Which Kd did it give?
The Kd was 1.04 nM.

For UCUCUUGCUAUAUUAUUACCUCUCUU (ssRNA) [Id_ii_S1_P5E.3_K5.2_C5.2_[C-2G]_[T-1C]_H5.2_A5.1_F5.1_T5.2_[T11C]_[A12C]], which Kd is on record?
The Kd was 340 nM.

For UCUCUUGUUAUAUUAUUACGUCUCUU (ssRNA) [Id_ii_S1_P5E.3_K5.2_C5.2_[C-2G]_H5.2_A5.1_F5.1_T5.2_[T11C]_[A12G]], which Kd is on record?
The Kd was 22 nM.

Which Kd does the source give for UCUCUUUCUAUAUUAUUACAUCUCUU (ssRNA) [Id_ii_S1_P5E.3_K5.2_C5.2_[C-2T]_[T-1C]_H5.2_A5.1_F5.1_T5.2_[T11C]] here?
The Kd was 630 nM.

For UCUCUUUGUAUGAUAUCUCUU (ssRNA) [Ib_S1_P4E.1_K4.1_C4.1_H4.1_A4.1_[A6G]_[T7A]_F4.1_T4.1], which Kd is on record?
Its Kd is 4.57 nM.

With UCUCUUUGUAUCCUAUCUCUU (ssRNA) [Ic_S1_P4E.1_K4.1_C4.1_H4.1_A4.1_[A6C]_[T7C]_F4.1_T4.1] as the binder, how does the Kd read?
The Kd was 4.4 nM.

For UCUCUUCAUGUAUUAUUAAUUCUCUU (ssRNA) [Id_ii_S1_P5E.2_K5.1_C5.2_[T-1A]_H5.1_A5.1_F5.1_T5.2_[T11A]_[A12T]], which Kd is on record?
The Kd was 7.68 nM.

Which Kd does the source give for UCUCUUCCUGUAUUAUUAUGUCUCUU (ssRNA) [Id_ii_S1_P5E.2_K5.1_C5.2_[T-1C]_H5.1_A5.1_F5.1_T5.2_[A12G]] here?
Its Kd is 6.12 nM.

Which Kd does the source give for UCUCUUCUUGUAUUAUUAGUUCUCUU (ssRNA) [Id_ii_S1_P5E.2_K5.1_C5.2_H5.1_A5.1_F5.1_T5.2_[T11G]_[A12T]] here?
Its Kd is 3.87 nM.

How did the Kd turn out when UCUCUUGUUAUAUUAUUACUUCUCUU (ssRNA) [Id_ii_S1_P5E.3_K5.2_C5.2_[C-2G]_H5.2_A5.1_F5.1_T5.2_[T11C]_[A12T]] was run?
Its Kd is 13.4 nM.

How did the Kd turn out when UCUCUUGUUAUAUUAUUAUCUCUCUU (ssRNA) [Id_ii_S1_P5E.3_K5.2_C5.2_[C-2G]_H5.2_A5.1_F5.1_T5.2_[A12C]] was run?
The Kd was 16.3 nM.

For UCUCUUUCUAUAUUAUUACGUCUCUU (ssRNA) [Id_ii_S1_P5E.3_K5.2_C5.2_[C-2T]_[T-1C]_H5.2_A5.1_F5.1_T5.2_[T11C]_[A12G]], which Kd is on record?
Its Kd is 494 nM.

For UCUCUUGUUAUAUUAUUAAAUCUCUU (ssRNA) [Id_ii_S1_P5E.3_K5.2_C5.2_[C-2G]_H5.2_A5.1_F5.1_T5.2_[T11A]], which Kd is on record?
Its Kd is 17.7 nM.

For UCUCUUCUUGUAUUAUUAAAUCUCUU (ssRNA) [Id_ii_S1_P5E.2_K5.1_C5.2_H5.1_A5.1_F5.1_T5.2_[T11A]], which Kd is on record?
Its Kd is 9.5 nM.

How did the Kd turn out when UCUCUUGCUAUAUUAUUAAUUCUCUU (ssRNA) [Id_ii_S1_P5E.3_K5.2_C5.2_[C-2G]_[T-1C]_H5.2_A5.1_F5.1_T5.2_[T11A]_[A12T]] was run?
The Kd was 343 nM.

UCUCUUUCUAUAUUAUUACCUCUCUU (ssRNA) [Id_ii_S1_P5E.3_K5.2_C5.2_[C-2T]_[T-1C]_H5.2_A5.1_F5.1_T5.2_[T11C]_[A12C]] was tested. Which Kd did it give?
Its Kd is 388 nM.

For UCUCUUCCUGUAUUAUUAACUCUCUU (ssRNA) [Id_ii_S1_P5E.2_K5.1_C5.2_[T-1C]_H5.1_A5.1_F5.1_T5.2_[T11A]_[A12C]], which Kd is on record?
The Kd was 7.24 nM.

UCUCUUUGUAUAUUAUUAAUUCUCUU (ssRNA) [Id_ii_S1_P5E.3_K5.2_C5.2_[C-2T]_[T-1G]_H5.2_A5.1_F5.1_T5.2_[T11A]_[A12T]] was tested. Which Kd did it give?
Its Kd is 0.615 nM.

Which Kd does the source give for UCUCUUGUUAUAUUAUUAGUUCUCUU (ssRNA) [Id_ii_S1_P5E.3_K5.2_C5.2_[C-2G]_H5.2_A5.1_F5.1_T5.2_[T11G]_[A12T]] here?
The Kd was 15.3 nM.

Which Kd does the source give for UCUCUUCGUGUAUUAUUAUUUCUCUU (ssRNA) [Id_ii_S1_P5E.2_K5.1_C5.2_[T-1G]_H5.1_A5.1_F5.1_T5.2_[A12T]] here?
The Kd was 7.48 nM.

How did the Kd turn out when UCUCUUUCUAUAUUAUUAUCUCUCUU (ssRNA) [Id_ii_S1_P5E.3_K5.2_C5.2_[C-2T]_[T-1C]_H5.2_A5.1_F5.1_T5.2_[A12C]] was run?
Its Kd is 455 nM.

UCUCUUCCUGUAUUAUUAUCUCUCUU (ssRNA) [Id_ii_S1_P5E.2_K5.1_C5.2_[T-1C]_H5.1_A5.1_F5.1_T5.2_[A12C]] was tested. Which Kd did it give?
The Kd was 6.56 nM.

With UCUCUUCGUGUAUUAUUAUCUCUCUU (ssRNA) [Id_ii_S1_P5E.2_K5.1_C5.2_[T-1G]_H5.1_A5.1_F5.1_T5.2_[A12C]] as the binder, how does the Kd read?
Its Kd is 7.38 nM.

Which Kd does the source give for UCUCUUUGUAUCGUAUCUCUU (ssRNA) [Ic_S1_P4E.1_K4.1_C4.1_H4.1_A4.1_[A6C]_[T7G]_F4.1_T4.1] here?
Its Kd is 12.3 nM.

With UCUCUUUGUAUGCUAUCUCUU (ssRNA) [Ib_S1_P4E.1_K4.1_C4.1_H4.1_A4.1_[A6G]_[T7C]_F4.1_T4.1] as the binder, how does the Kd read?
The Kd was 7.91 nM.
